# Measurements from patent US20120231006A1 (Amgen, published 2012).
# Positions count from the first letter of the chain named. Read-outs that look alike come from different tables or passages of the source.
# B1: mAb 2D2.1 (antibody, human IgG2, lambda, V domains shown)
# VH: QVQLQQWGAGLLKPSETLSLTCAVYGGSFSGYYWSWIRQPPGKGLEWIGEIDHSGRINYNPALKSRLTISVDTSKNQFSLKLSSVTAADTAVYYCARAGSGGYEDWFDPWGQGTLVTVSS
# VL: QSVLTQPPSVSGAPGQRVTISCTGSSSNIGAGYNVHWYQQFPRTDPKLLIYVYNIRPSGVPDRFSGSRSGTSASLAITGLQTEDEADYYCQSYDSSLSGVVFGGGTKLTVLG
# notes: fully human IgG2 lambda, Campaign 1; also called mAb 2D.1
# B2: mAb 2B7.1 (antibody, human IgG2, V domains shown)
# VH: B1 VH with R56S, I57T
# VL: B1 VL with A31T
# notes: fully human, Campaign 1
# B3: mAb 2C1.1 (antibody, human IgG2, lambda, V domains shown)
# VH: B1 VH with R56S, I57T
# VL: B1 VL
# notes: fully human IgG2 lambda, Campaign 1; tested hybridoma-purified and recombinant; also called anti-hOrai1 mAb 2C1.1
# Key:
# [1] = molecular target: T1, mOrai1-hOrai1 ECL2 (HSD) protein (human/mouse chimera, UniProt Q8BWG9 1-304 (mouse entry)); assay: FACS, 293EBNA, RFI-POC grade
# T1 construct: also called Ch
# Excerpt: FIG. 16A-D illustrates the results of FACS analysis showing binding to the indicated mOrai1-hOrai1 ECL2 chimeric mutants expressed on the surface of HEK-293-EBNA cells. Transfected cells were stained first with recombinant monoclonal antibodies then counter-stained with a secondary phycoerythrin-labeled goat (“Gt”) anti-human (“Hu”) IgG F(ab′)₂ antibody fragment and visualized using FACS. In FIG. 16B and FIG. 16D, The values of Relative Fluorescence Intensity as Percent of Control (RFI-POC) are calculated from the relative fluorescence intensity geometric mean (Geo Mean). The geometric mean is an average calculated by multiplying a series of numbers and taking the nth root where n is the number of numbers in the series. It is a statistical average of a set of transformed numbers often used to represent a central tendency in a highly variable data set that minimizes the effects of extreme values.
# Table 11A and Table 11B feature a schematic representation of the POC data from FIG. 16B and FIG. 16D, respectively, where the binding results are recorded as (+++) denoting binding POC from 40% to 100%, (++) for POC of 5% to less than 40%, (+) for POC from 1% to less than 5% and (−) as lack of binding with POC less than 1%.
# [2] = molecular target: T2, hOrai1-mOrai1 ECL2 (SKPPA) protein (human/mouse chimera, UniProt Q96D31 1-301); assay: FACS, 293EBNA, RFI-POC grade; design: concentration or dose not given beside the values
# T2 construct: also called Ch
# [3] = molecular target: T3, hOrai1-mOrai1 ECL2 (…) protein (human/mouse chimera, UniProt Q96D31 1-301); assay: FACS, 293EBNA, RFI-POC grade; design: concentration or dose not given beside the values
# T3 construct: also called Ch
# T3 sequence (Q96D31 other isoform, or with tags, fused parts or gaps): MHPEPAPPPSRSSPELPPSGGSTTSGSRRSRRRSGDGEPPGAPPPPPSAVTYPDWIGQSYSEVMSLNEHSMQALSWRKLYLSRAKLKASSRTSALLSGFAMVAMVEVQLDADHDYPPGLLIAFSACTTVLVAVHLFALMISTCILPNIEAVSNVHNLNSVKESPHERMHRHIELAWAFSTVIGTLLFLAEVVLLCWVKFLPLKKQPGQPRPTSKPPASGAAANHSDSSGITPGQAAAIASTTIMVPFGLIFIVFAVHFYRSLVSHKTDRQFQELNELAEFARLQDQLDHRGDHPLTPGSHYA
# [4] = molecular target: T4, hOrai1-mOrai1 ECL2 (RPTSKPPA) protein (human/mouse chimera, UniProt Q96D31 1-301); assay: FACS, 293EBNA, RFI-POC grade; design: concentration or dose not given beside the values
# T4 construct: also called Ch
# [5] = molecular target: T5, mOrai1-hOrai1 ECL2 chimeric protein (human/mouse chimera, UniProt Q8BWG9 1-304 (mouse entry)); assay: FACS, 293EBNA, RFI-POC grade; design: concentration or dose not given beside the values
# T5 construct: mouse Orai1 with human ECL2; also called Ch
# [6] = molecular target: T2, hOrai1-mOrai1 ECL2 (SKPPA) protein; assay: FACS, 293EBNA, RFI-POC grade; design: concentration or dose not given beside the values; remark: listed apart in the source
# [7] = molecular target: T6, hOrai1-mOrai1 ECL2 (…) protein (human/mouse chimera, UniProt Q96D31 1-301); assay: FACS, 293EBNA, RFI-POC grade; design: concentration or dose not given beside the values; remark: listed apart in the source
# T6 construct: also called Ch
# T6 sequence (Q96D31 other isoform, or with tags, fused parts or gaps): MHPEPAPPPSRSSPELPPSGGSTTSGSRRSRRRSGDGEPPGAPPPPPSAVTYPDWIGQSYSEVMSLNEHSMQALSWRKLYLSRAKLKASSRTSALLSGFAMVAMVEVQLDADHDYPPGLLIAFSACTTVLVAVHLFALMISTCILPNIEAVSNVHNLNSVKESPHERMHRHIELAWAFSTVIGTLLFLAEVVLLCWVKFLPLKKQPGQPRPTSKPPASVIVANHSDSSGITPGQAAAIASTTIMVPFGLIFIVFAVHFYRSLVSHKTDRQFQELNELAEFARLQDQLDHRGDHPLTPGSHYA
# [8] = molecular target: T3, hOrai1-mOrai1 ECL2 (…) protein; assay: FACS, 293EBNA, RFI-POC grade; design: concentration or dose not given beside the values; remark: listed apart in the source
# [9] = molecular target: T4, hOrai1-mOrai1 ECL2 (RPTSKPPA) protein; assay: FACS, 293EBNA, RFI-POC grade; design: concentration or dose not given beside the values; remark: listed apart in the source
# [10] = molecular target: T7, hOrai1-mOrai1 ECL2 (…) protein (human/mouse chimera, UniProt Q96D31 1-301); assay: FACS, 293EBNA, RFI-POC grade; design: concentration or dose not given beside the values; remark: listed apart in the source
# T7 construct: also called Ch
# T7 sequence (Q96D31 other isoform, or with tags, fused parts or gaps): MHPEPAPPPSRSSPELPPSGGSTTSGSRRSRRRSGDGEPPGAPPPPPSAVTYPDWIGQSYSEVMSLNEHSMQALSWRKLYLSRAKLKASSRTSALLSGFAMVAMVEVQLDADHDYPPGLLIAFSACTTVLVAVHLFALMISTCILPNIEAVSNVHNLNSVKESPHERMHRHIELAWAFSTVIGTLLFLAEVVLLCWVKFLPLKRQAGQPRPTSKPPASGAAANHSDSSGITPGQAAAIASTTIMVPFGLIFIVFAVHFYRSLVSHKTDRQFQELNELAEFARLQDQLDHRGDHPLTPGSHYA
# human Orai2 = molecular target: T8, human Orai2 (human, UniProt Q96SN7 1-254); assay: FACS, 293EBNA transfectants
# T8 construct: also called hOrai2
# Experimental: (§1) Purified monoclonal antibodies from hybridoma supernantants of the subclones derived from initial hits were assessed for binding to human Orai1, Orai2 and Orai3 expressed on HEK-293-EBNA cells along with vector transfected control parental cells. Cells stained with or without primary mAbs were counter-stained with a secondary phycoerythrin-labeled goat (“Gt”) anti-human (“Hu”) IgG F(ab′)₂ antibody fragment and visualized using FACS.
# (§2) FACS binding analysis. Transfected 293EBNA cells transiently expressed hOrai1, human Orai2, or human Orai3 (results of binding comparison in FIG. 11A-B), or hOrai1(S218G) (results of binding comparison in FIG. 12A-B); or hOrai1 and hSTIM1; mOrai1 and mouse STIM1; or rat Orai1 and rat STIM1 (results of binding comparison in FIG. 13). The transfected cells were harvested at 48 hours post-transfection. Cells transfected with pcDNA3.1 were used as negative controls. Cells were washed once with ice-cold 1×PBS, resuspended in ice-cold FACS buffer (1×D-PBS+2% goat serum), and 2×10⁵ cells in […] were stained per antibody combination. All antibody incubation steps were performed on ice for 1 hour. […] Next, the unlabelled antibody was detected using goat F(ab′)₂ anti-mouse or anti-human IgG-phycoerythrin (IgG-PE), followed by a wash with 200 μL of ice-cold FACS buffer before flow cytometry analysis. Unstained cells and cells stained with detecting antibodies were used as negative controls. The values of relative level of fluorescence were calculated using FCS Express (De Novo Software) and mean values were calculated using log-transformed data (geometric mean). Purified mAbs were assessed by FACS assay for their ability to specifically bind human Orai1, Orai2 and Orai3 proteins expressed on HEK-293 cells.
# human Orai3 = human Orai3 (human, UniProt Q9BRQ5 1-295); assay: FACS, 293EBNA transfectants
# Experimental: as §1, §2
# human Orai1 [11] = molecular target: T9, human Orai1 (human, UniProt Q96D31 1-301); assay: KinExA, AM1-CHO/hOrai1/hSTIM1-YFP cells
# T9 construct: on AM1-CHO/hOrai1/hSTIM1-YFP, AM1/hOrai1, HEK-293 transfectants, endogenous on Jurkat and blood cells; in Westerns from cell lysates; also called hOrai1; CRACM1
# Experimental: Each equilibrium sample set was read in triplicate on the KinExA machine. For low [Ab] equilibrium samples 4 mL was run of each sample in triplicate. For high [Ab] equilibrium samples 300 μL was run of each sample in triplicate. […] For each equilibrium sample the free [Ab] would be detected by first running the coated beads through the flow cell, then after quick wash with the running buffer (1×PBS pH7.4+1% BSA+0.05% Sodium Azide) the equilibrium samples were passed through the beads followed by a quick wash with the running buffer. Then the secondary detection Ab, Gt anti Hu (H+ L) Cy5, was run through the flow cell at 1 μg/mL and 1000 μL per run. The KinExA voltage output signal was then used in KinExA software to calculate the Kd values for each antibody. From the plots at two different initial total [Ab] concentrations the Kd was obtained from curve fitting using n-curve analysis in KinExA Pro software (Sapidyne Instruments Inc., Boise Id.).
# human Orai1 [12] = molecular target: T9, human Orai1; assay: cell-based or functional assay
# T5 sequence (Q8BWG9 other isoform, or with tags, fused parts or gaps mutant): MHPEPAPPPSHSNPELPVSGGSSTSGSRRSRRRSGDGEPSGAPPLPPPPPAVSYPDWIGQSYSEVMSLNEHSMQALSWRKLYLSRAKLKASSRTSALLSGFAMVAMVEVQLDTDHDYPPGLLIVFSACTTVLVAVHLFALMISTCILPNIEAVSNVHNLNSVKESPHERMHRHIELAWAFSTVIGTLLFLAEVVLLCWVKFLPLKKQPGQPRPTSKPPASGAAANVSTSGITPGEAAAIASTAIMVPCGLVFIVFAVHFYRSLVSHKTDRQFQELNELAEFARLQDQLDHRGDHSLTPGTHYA
# T2 sequence (Q96D31 other isoform, or with tags, fused parts or gaps): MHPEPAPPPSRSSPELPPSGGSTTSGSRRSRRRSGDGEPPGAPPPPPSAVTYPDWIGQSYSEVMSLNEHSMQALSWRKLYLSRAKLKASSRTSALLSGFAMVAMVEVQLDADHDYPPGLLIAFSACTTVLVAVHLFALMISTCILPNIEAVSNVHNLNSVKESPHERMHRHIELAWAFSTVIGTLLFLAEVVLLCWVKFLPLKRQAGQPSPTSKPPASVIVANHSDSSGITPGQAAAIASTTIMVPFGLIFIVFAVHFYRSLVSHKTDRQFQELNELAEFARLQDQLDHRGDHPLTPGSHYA
# T4 sequence (Q96D31 other isoform, or with tags, fused parts or gaps): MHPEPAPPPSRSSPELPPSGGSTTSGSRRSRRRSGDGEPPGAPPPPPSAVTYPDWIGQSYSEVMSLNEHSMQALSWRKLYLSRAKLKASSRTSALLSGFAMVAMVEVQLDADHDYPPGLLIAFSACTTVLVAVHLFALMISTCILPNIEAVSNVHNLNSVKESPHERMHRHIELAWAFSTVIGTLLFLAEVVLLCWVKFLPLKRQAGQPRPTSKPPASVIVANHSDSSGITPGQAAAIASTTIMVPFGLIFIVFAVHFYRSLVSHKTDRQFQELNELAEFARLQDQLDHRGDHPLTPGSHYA
# T9 sequence (Q96D31 whole entry): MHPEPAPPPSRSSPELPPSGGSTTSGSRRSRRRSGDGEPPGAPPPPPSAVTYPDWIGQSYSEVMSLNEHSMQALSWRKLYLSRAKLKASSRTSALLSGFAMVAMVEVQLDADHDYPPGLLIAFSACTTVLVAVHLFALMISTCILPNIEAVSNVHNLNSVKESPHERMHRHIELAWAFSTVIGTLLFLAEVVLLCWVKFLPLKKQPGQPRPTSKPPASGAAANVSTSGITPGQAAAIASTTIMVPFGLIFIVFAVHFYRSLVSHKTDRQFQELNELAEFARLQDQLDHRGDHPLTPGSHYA
# T1 sequence (Q8BWG9 other isoform, or with tags, fused parts or gaps): as the sequence (Q8BWG9 other isoform, or with tags, fused parts or gaps mutant) above, with V226H, T228D counted along it
# T8 sequence (Q96SN7 whole entry): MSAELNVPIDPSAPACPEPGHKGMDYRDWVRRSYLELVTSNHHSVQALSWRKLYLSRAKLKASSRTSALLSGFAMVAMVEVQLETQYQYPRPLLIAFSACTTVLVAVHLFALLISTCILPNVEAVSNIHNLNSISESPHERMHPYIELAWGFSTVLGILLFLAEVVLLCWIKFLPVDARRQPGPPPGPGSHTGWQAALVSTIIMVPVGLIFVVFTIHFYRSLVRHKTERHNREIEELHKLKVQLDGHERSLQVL
Binder,"POC (percent of control, FACS Geo Mean relative to Ch. 1) [1]",percent of control (POC) of FACS Geo Mean [2],percent of control (POC) of FACS Geo Mean [3],percent of control (POC) of FACS Geo Mean [4],percent of control (POC) of FACS Geo Mean [5],percent of control (POC) of FACS Geo Mean [6],percent of control (POC) of FACS Geo Mean [7],percent of control (POC) of FACS Geo Mean [8],percent of control (POC) of FACS Geo Mean [9],percent of control (POC) of FACS Geo Mean [10],binding result (human Orai2),binding result (human Orai3),Kd (human Orai1 [11]),"IC50 IFN-γ, whole blood Donor A (human Orai1 [12])","IC50 IFN-γ, whole blood Donor B (human Orai1 [12])","IC50 IL-2, whole blood Donor A (human Orai1 [12])","IC50 IL-2, whole blood Donor B (human Orai1 [12])"
B1,40 to 100%,5 to 40%,40 to 100%,40 to 100%,40 to 100%,5 to 40%,40 to 100%,40 to 100%,40 to 100%,40 to 100%,no binding (tested: 1 µg),no binding (tested: 1 µg),0.099 nM,1.98 nM,2.06 nM,1.31 nM,1.16 nM
B2,40 to 100%,,,,40 to 100%,5 to 40%,40 to 100%,40 to 100%,40 to 100%,40 to 100%,no binding (tested: 1 µg),no binding (tested: 1 µg),0.1 nM,4.6 nM,14 nM,3.5 nM,4.67 nM
B3,40 to 100%,,,,40 to 100%,5 to 40%,40 to 100%,40 to 100%,40 to 100%,40 to 100%,no binding (tested: 1 µg),no binding (tested: 1 µg),0.04 nM,17.1 nM,2.67 nM,5.23 nM,1.44 nM
